Laboratory results as given in patent US20260043020A1, “BINDING MEMBERS WITH ALTERED DIVERSITY SCAFFOLD DOMAINS” (priority 2016, published 2026).

Assays:
human Kv 1.3 (human) = human Kv 1.3 (human) (UniProt P22001); assay: cell-based or functional assay
trypsin [1] = assay: monoclonal phage TRF ELISA
trypsin [2] = assay: phage TRF ELISA; GlyAla (Pro3Gly, Arg4Ala) mutant against the clone

Sequence of human Kv 1.3 (human) (P22001 whole entry): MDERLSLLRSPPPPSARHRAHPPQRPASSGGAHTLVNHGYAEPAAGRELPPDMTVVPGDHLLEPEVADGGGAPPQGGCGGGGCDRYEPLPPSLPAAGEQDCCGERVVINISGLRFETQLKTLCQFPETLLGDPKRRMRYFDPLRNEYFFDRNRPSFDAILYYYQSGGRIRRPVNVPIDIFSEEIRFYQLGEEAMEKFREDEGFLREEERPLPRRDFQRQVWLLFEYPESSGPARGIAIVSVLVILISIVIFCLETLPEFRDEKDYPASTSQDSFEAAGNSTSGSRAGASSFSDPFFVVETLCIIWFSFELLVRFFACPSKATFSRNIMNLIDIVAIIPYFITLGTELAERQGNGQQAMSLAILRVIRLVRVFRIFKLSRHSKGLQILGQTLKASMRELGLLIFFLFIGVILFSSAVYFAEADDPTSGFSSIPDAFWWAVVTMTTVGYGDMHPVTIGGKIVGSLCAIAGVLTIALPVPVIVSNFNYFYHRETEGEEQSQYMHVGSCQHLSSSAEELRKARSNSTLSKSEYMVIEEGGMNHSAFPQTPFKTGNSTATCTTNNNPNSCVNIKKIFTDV

B1: KB_A07_Shk (antibody, V domains shown)
VH: EVQLVESGGGLVRPGGSLRLSCAASGFTFSSYAMSWVRQAPGKGLEWVSAISGSGGSTYYADSVKGRFTISRDNTKNSLYLQMTSLRADDTAFYYCVKDFGPGYGTGWFDYWGPGTLVTVSS
VL: NWYQQKPGKAPKLLIYAAGVRSCIDTIPKSRCTAFQCKHSMKYRLSFCRKTCGTCSRSGVPSRFSGSGSGTDFTLTISSLQPEDFATYYCQQGASPPYTFGQGTKVEIKR
IC50, inhibition of huKv1.3 currents (QPatch, CHO cells) (human Kv 1.3 (human)): 0.04 µM

B2: KB_B01 (scFv, V domains shown)
VH: EVQLVESGGGLVRPGGSLRLSCAASGFTFSSYAMSWVRQAPGKGLEWVSAISGSGGSTYYADSVKGRFTISRDNTKNSLYLQMTSLRADDTAFYYCVKDFGPGYGTGWFDYWGPGTLVTVSS
VL: AVNWYQQLPGKAPKLLIYAAAGCPRILMRCKQDSDCLAGCVCGPNGFCGTRSGVSDRFSGSKSGTSASLAISGLRSEDEADYYCAAWDDSLRAYVFGTGTKLTVLG
trypsin binding signal (FU) (trypsin [1]): 57700 FU
% reduction in binding signal (trypsin [2]): 95%

B3: KB_A10 (scFv, V domains shown)
VH: EVQLVESGGGLVRPGGSLRLSCAASGFTFSSYAMSWVRQAPGKGLEWVSAISGSGGSTYYADSVKGRFTISRDNTKNSLYLQMTSLRADDTAFYYCVKDFGPGYGTGWFDYWGPGTLVTVSS
VL: AVNWYQQLPGKAPKLLIYAAGGCPRILMRCKQDSDCLAGCVCGPNGFCGSNSGVPDRFSGSKSGNTASLTISGLQSEDEADYYCAAWDDSLSGVVFGGGTQLTVLG
trypsin binding signal (FU) (trypsin [1]): 38800 FU
% reduction in binding signal (trypsin [2]): 100%

B4: KB_C08 (scFv, V domains shown)
VH: EVQLVESGGGLVRPGGSLRLSCAASGFTFSSYAMSWVRQAPGKGLEWVSAISGSGGSTYYADSVKGRFTISRDNTKNSLYLQMTSLRADDTAFYYCVKDFGPGYGTGWFDYWGPGTLVTVSS
VL: AVNWYQQLPGKAPKLLIYAAAVCPRILMRCKQDSDCLAGCVCGPNGFCGTRSGIPERFSGSKSGTSAFLAISGLRSEDEADYYCAAWDDSLSGVVFGGGTKLTVLG
trypsin binding signal (FU) (trypsin [1]): 76800 FU
% reduction in binding signal (trypsin [2]): 100%

B5: KB_C07 (scFv, V domains shown)
VH: EVQLVESGGGLVRPGGSLRLSCAASGFTFSSYAMSWVRQAPGKGLEWVSAISGSGGSTYYADSVKGRFTISRDNTKNSLYLQMTSLRADDTAFYYCVKDFGPGYGTGWFDYWGPGTLVTVSS
VL: AVNWYQQLPGKAPKLLIYAAVGCPRILMRCKQDSDCLAGCVCGPNGFCGSASGVSDRFSGSKSGTSASLAISGLRSEDEADYYCASWDDSLRGYVFGTGTKVTVLG
trypsin binding signal (FU) (trypsin [1]): 43300 FU
% reduction in binding signal (trypsin [2]): 100%

B6: KB_B10 (scFv, V domains shown)
VH: EVQLVESGGGLVRPGGSLRLSCAASGFTFSSYAMSWVRQAPGKGLEWVSAISGSGGSTYYADSVKGRFTISRDNTKNSLYLQMTSLRADDTAFYYCVKDFGPGYGTGWFDYWGPGTLVTVSS
VL: QSVLTQLPSVSEAPRQRVTITCGRAMCPRILMRCKQDSDCLAGCVCGPNGFCGTGNWYQQHPGKAPKLIIFDVSKRPSGVPDRFSASKSGNTASLTISGLQAEDEADYYCNSYTSSNTWVFGGGTQLTVLG
trypsin binding signal (FU) (trypsin [1]): 9270 FU
% reduction in binding signal (trypsin [2]): 100%

B7: KB_B11 (scFv, V domains shown)
VH: EVQLVESGGGLVRPGGSLRLSCAASGFTFSSYAMSWVRQAPGKGLEWVSAISGSGGSTYYADSVKGRFTISRDNTKNSLYLQMTSLRADDTAFYYCVKDFGPGYGTGWFDYWGPGTLVTVSS
VL: TQPPSVSEAPRQRVTITCGSRPCPRILMRCKQDSDCLAGCVCGPNGFCGSHNWYQQLPGSSPTTVIYEDNQRPSGVPDRFSGSIDRSSNSASLTISGLKTEDEADYYCQSYDSSNHRVVFGGGTKLTVLG
trypsin binding signal (FU) (trypsin [1]): 10300 FU
% reduction in binding signal (trypsin [2]): 100%

B8: KB_A11 (scFv, V domains shown)
VH: EVQLVESGGGLVRPGGSLRLSCAASGFTFSSYAMSWVRQAPGKGLEWVSAISGSGGSTYYADSVKGRFTISRDNTKNSLYLQMTSLRADDTAFYYCVKDFGPGYGTGWFDYWGPGTLVTVSS
VL: YLNWYQQKPGKAPKLLIYAAEICPRILMRCKQDSDCLAGCVCGPNGFCGPSSGIPARFSGSGYGTDFTLTINNIESEDAAYYFCLQHDNFPYTFGQGTKVEIKR
trypsin binding signal (FU) (trypsin [1]): 16400 FU
% reduction in binding signal (trypsin [2]): 100%

B9: KB_A12 Kaliotoxin (KTX) fusion (antibody)
VH: EVQLVESGGGLVRPGGSLRLSCAASGFTFSSYAMSWVRQAPGKGLEWVSAISGSGGSTYYADSVKGRFTISRDNTKNSLYLQMTSLRADDTAFYYCVKDFGPGYGTGWFDYWGPGTLVTVSS
VL: QSVLTQPPSVSEAPRQRVTITCSGSSSNIGNNAVNWYQQLPGKAPKLLIYAAGRGVEINVKCSGSPQCLKPCKDAGMRFGKCMNRKCHCTPKANSGVSDRFSAAKSGTSASLAINGLRSEDEADYYCAAWDDSLNGYVFGTGTKLTVLGQP
IC50, inhibition of huKv1.3 currents (QPatch, CHO cells) (human Kv 1.3 (human)): > 10 µM

B10: KB_C10 (scFv, V domains shown)
VH: EVQLVESGGGLVRPGGSLRLSCAASGFTFSSYAMSWVRQAPGKGLEWVSAISGSGGSTYYADSVKGRFTISRDNTKNSLYLQMTSLRADDTAFYYCVKDFGPGYGTGWFDYWGPGTLVTVSS
VL: AVNWYQQLPGKAPKLLIYAAGPCPRILMRCKQDSDCLAGCVCGPNGFCGADSGVSDRFSGSKSGTSASLAITGLQAEDEGDYYCAAWDDSLNGLVFGGGTKVTVLG
trypsin binding signal (FU) (trypsin [1]): 119000 FU
% reduction in binding signal (trypsin [2]): 100%

B11: KB_B12 (scFv, V domains shown)
VH: EVQLVESGGGLVRPGGSLRLSCAASGFTFSSYAMSWVRQAPGKGLEWVSAISGSGGSTYYADSVKGRFTISRDNTKNSLYLQMTSLRADDTAFYYCVKDFGPGYGTGWFDYWGPGTLVTVSS
VL: TQPPSVSEAPRQRVTITCGERPCPRILMRCKQDSDCLAGCVCGPNGFCGANNWYQQLPGSSPTTVIYEDNQRPSGVPDRFSGSIDSSSNSASLTISGLKTEDEADYYCQSYDSSNQVFGGGTKVTVLG
trypsin binding signal (FU) (trypsin [1]): 17400 FU
% reduction in binding signal (trypsin [2]): 97%

B12: KB_A07 MoKa-1 fusion (antibody, V domains shown)
VH: EVQLVESGGGLVRPGGSLRLSCAASGFTFSSYAMSWVRQAPGKGLEWVSAISGSGGSTYYADSVKGRFTISRDNTKNSLYLQMTSLRADDTAFYYCVKDFGPGYGTGWFDYWGPGTLVTVSS
VL: DIQMTQSPSSLSASVGDRVTITCRASQSISSYLNWYQQKPGKAPKLLIYAAGVINVKCSLPQQCIKPCKDAGMRFGKCMNKKCRCYSSRSGVPSRFSGSGSGTDFTLTISSLQPEDFATYYCQQGASPPYTFGQGTKVEIKRT
IC50, inhibition of huKv1.3 currents (QPatch, CHO cells) (human Kv 1.3 (human)): > 10 µM

B13: KB_C09 (scFv, V domains shown)
VH: EVQLVESGGGLVRPGGSLRLSCAASGFTFSSYAMSWVRQAPGKGLEWVSAISGSGGSTYYADSVKGRFTISRDNTKNSLYLQMTSLRADDTAFYYCVKDFGPGYGTGWFDYWGPGTLVTVSS
VL: AVNWYQQLPGKAPKLLIYAAGRCPRILMRCKQDSDCLAGCVCGPNGFCGGGSGVPDRFSGSIDSSSNSASLTISGLRAEDEADYYCQSYDSSNHWVFGGGTKLTVLG
trypsin binding signal (FU) (trypsin [1]): 89400 FU
% reduction in binding signal (trypsin [2]): 100%

B14: KB_B02 (scFv, V domains shown)
VH: EVQLVESGGGLVRPGGSLRLSCAASGFTFSSYAMSWVRQAPGKGLEWVSAISGSGGSTYYADSVKGRFTISRDNTKNSLYLQMTSLRADDTAFYYCVKDFGPGYGTGWFDYWGPGTLVTVSS
VL: AVNWYQQLPGKAPKLLIYAAVGCPRILMRCKQDSDCLAGCVCGPNGFCGTGSGIPERFSGSKSGNTASLTISGLQAEDEGDYYCAAWDDSLSGPVFGGGTKLTVLG
trypsin binding signal (FU) (trypsin [1]): 116000 FU
% reduction in binding signal (trypsin [2]): 98%
